From a protein production outcome set (Wang et al. 2014)

Assay: label from the status in PepcDB records

| Sequence | protein production |
| --- | --- |
| APRSVAMVVPQGSDIRQLSDLRGKRIALNKGSNVHWLLLQILEDAGLGLNDVRVVYTPPKYPLTASDYLAVDAWMMWDPLLSDAEHTGELRVVASGEGRVNNHQFYLSRRDYLAQHGDIMRRLLTELTHTGQFIDSHRGEAARLLSAELGI | failed |
| SLRHSPSLWELVEEHVPLRERREVKRILGEAAVDLSLELRAEVAMLRALLQEARSSQAPSSRPISDPSSLLAPPPLLKDLLRQELRQLLQGLRHKAICEGRDQAQAWVQYSPRVLHFALEEPRCDLPEQEIFQMRGGGPSSGHRDLSIIKDQLNVSNIDQVARHLRGLLEEECHTLEREILILQRCLEEEYLRPCHPSEAALEPTLAELKEQKKAMEQELQASVGPSCVSPNHRQRPLGSSTQGLRPPLPLCGVAPLQCCLPAPPLEPYLRPRGQSATHRWGRQLQCSPREGPASTPMSSAAPQAPA | not failed |
| MFLSVVTVAFRNYEGVVKTWRSLRNLARDPGLSFEWIVVDGGSEDGTREFLQKRHGEFNLRFISEKDRGIYDAMNKGIALAQGRYTLFLNSGDAFHDDAALFVRQLARQKGEAMYIGDALLDFGGGHKIRRKAKPGYYIYHSLPASHQAIFFPTAALKKYPYDLQYHVSSDYALAARLYKAGYPFRRINGLVSEFSMGGVSTSNNLELCQDAKNVQRKILRVPGFWAQLSYLLRLKTTGKTKARYNKVLEHHHHHH | failed |
| REIADNTYIVLGTMTLNDFNEYFETDLESDNVDTIAGFYLTGVGTIPSQEEKEHFEVESNGKHLELINDKVKDGRVTKLKILVSEVEEKEDEKD | not failed |
| MVAPLEIKNSNAFCFFPVSFASSRFPWLLKTLVMILGLATVVFMFRSLALTAEFGTFKPAFPKPGPVDPVLKLLSEEHLRTLFTYSDIWLFPKNQCDCESGKQQMKYKYQNAYNQKDLPAVNARRQAEFEHFQRREGLPRPPPLLASPNLPFGYPVHGVEVMPLHTILIPGLQYEGPDAPVYEVTLKASLGTLNTLADVSDNEVQGRGQRQLSISTRHRKVLNFILQHVTYTSTVYHLHKVDIVSMESKSSVAKFPVTIKHQTVPKLYDPGPERKLRNLVTIATKTFLRPHKFKILLQSIRKYYPDLTVIVTDDSKEPLEIKDDYVEYYPMPFGKGWFAGRNLAISQVTTKYVLWVDDDFLFSNKTKIEVLVDVLEKTELDVVGGSVQGNTFQFRLLLERSENGDCLHQRWGSFQALDGFPGCTLASGVTNFFLAHTEQLRRVGFDPALQRVAHREFFIDGLGSLLVGSCPGVTVDHQTRTPSKDPKLAALEMSYAKYRTNTNSQVQFKLALHYFKNHLYCAT | failed |
| MAESPTEEAATATAGAGAAGPGSSGVAGVVGVSGSGGGFGPPFLPDVWAAAAAAGGAGGPGSGLAPLPGLPPSAAAHGAALLSHWDPTLSSDWDGERTAPQCLLRIKRDIMSIYKEPPPGMFVVPDTVDMTKIHALITGPFDTPYEGGFFLFVFRCPPDYPIHPPRVKLMTTGNNTVRFNPNFYRNGKVCLSILGTWTGPAWSPAQSISSVLISIQSLMTENPYHNEPGFEQERHPGDSKNYNECIRHETIRVAVCDMMEGKCPCPEPLRGVMEKSFLEYYDFYEVACKDRLHLQGQTMQDPFGEKRGHFDYQSLLMRLGLIRQKVLERLHNENAEMDSDSSSSGTETDLHGSLRV | failed |
| MEQKSKFSSATVFSGKLLIASLFILSGILLFARNMGWITAELFNIIVSWHSLLIILGIYSMIRRHFVGGIILVLVGVYFLLGGLSWLPENSQAMVWPLALIIAGVLFLFKSRHRGPWDDKQRMFRDHREWMKHGHHGHAGMNFTDNQQQCESEDGFLRSDNTFGAARHVVLDELFKGAVVRTSCGGTTIDLRHTHIAPGETYIDIDCSWGGVEIYVPSDWKVVFKCNTFFGGCDDKRWQNGNINKESVLVIRGRLSFGGLEVKD | failed |
| MPSTVSSSRLGLAGLCILLAGQLLPMIDFSIVNVALDALAHSLGASETELELIVAVYGVAFAVCLAMGGRLGDNYGRRRLFVLGVALFAVASLLCGLAGSVWLLLVARALQGVGAALVVPQILATLHVSLSGHAHSRALAAYGAIGGLAFVVGQVLGGFLVSADIGGLGWRSVFLINLPICLGILLCSRRWVPETRAEHAARVDAPGTLLLAALILCLLLPLALGPSLHWSWPCALLLAAAVPLLAWLWRTELRQERRQAWPLLPPSLLRLPSIRFGLLLAILFFACWSGFMFALALALQAGAGLSPVQAGNAFIALGASYFVSALLTARVAARIGPVRLLLLGCVIQMCGLLGLMLTLQRVWPQPGILNLAPATLVIGFGQAFIVSSFFRIGLSEVPAAQAGAGSAMLATVQQASLGLGSALLGAVFAHRLERHGDYLEATQTTLAVEFVLMTLLLGATCLFYLRRVRTVPLRCDSPGN | failed |
| MSHTLKSVAEDWFAIKKTTITEVTAKSLWRKFENHVFPKLGHRPIDKILAPEAIEALKPLAAKGNLETTGKIIGHLNNIMTHAVNTGILHHNPLSGIRSAFSAPKVTNLEHHHHHH | not failed |
| MALRKEDLILIPLVAGVMMGAIDSTIVVLALPTISDDLKAPLSLSIWIILAYLLVAAVSTTQFGRLGDMISRKTIFNSGMAIFTLGSFLCGVSSNIDFLIAFRFVQAAGGSMMQANSGSIIADNFPPNLRGRAYGYTSVGWNSGATLGIVLGGIITTLIGWRYIFYINVPVGIISLYFAIKYIIPGSKKNVKLDVPGVVTLTAALSSIAYAATDFTSHGLETTNETLLSIGFLLLVVFIFLERTNKNALLPFHLFQNRVFNFSIAASFLQSLGYLAVTFIVIMYLQGLRGLTPLDSSLLLVPGYVLGGFTGPIFGKLSDRIGARTPATLGMFLMMIAVLLYMTFNLKTPVYYVIPVSIISGLGSSMFFPANNSAVMASSPAGSYGAASGLLRTMANIGMLGSFVLAITVSTIAIPRYVAFEVFAGVGRLVGGLSASFLTGIHTALEVSFAIIAVGMLFSFVRGKENRSTSTPPRATETTK | failed |
| MGTTQLESVPEPKYWHLKTVLSEALDSEFSVGEILPNERDLAARFGVARATLRQALEQLELEGRLQRRRGVGTTVAPPRMGVAVGSEQHTWPGAAGDAWQPVDCTVAAPPPAVAGVLETGRNEQVHTVRRSRVTHGHPVAAELLYIPDFSVPDLSAIDAPSGAARARAVLRELQRLELEGQDRAVELGSARAEDAKELDRLPGAPVLVVTTRFFAEGRAAAVSVATYRADTCRLTFGDSGGVEIHHDPERRAS | failed |
| MFTGMIRLVTLGTFAAALLSSPALAAGGGGGGGGGGSISSTDPYAGAYSDQKPQPTYPKRPGTKATQKGKKQGNQSSIGDPAFAAGYRVAYDTIYERNDYATAIAQLKSLGHDDHPNVANLIGYSYRKLGDYEQSQVWYERALRADPNHVQTWQYYGLWQLERGNREQALYHLGRIASICGTDCDEYRSLAAALDKPSGTALVY | failed |
| MTHIIIDGDACPVVDSIIDLTTETGIFVTIIRSFSHFSNQLYPPHVSTLYVDDGPDAVDYKIVQLSTKDDIVVTQDYGLASLLVDKVLIVMHHNGKIYNSKNIQQLLDKRYINAQIRKQGGRHKGPPPFTKQDQKVFEQSLLKVIHRIKELDLEHHHHHH | not failed |
| ADEEESTPCDNVETDQQTFACAAFNKQVAERELQSAYDELIERMRDQFGDEAGLMSRIEAAEKVWSQLRDADCKVETHAEQPGSNAYQIAWNSCIAQRSDERAEYLRSLGSQNSDEPAPED | not failed |
| EAGYEAGTEYLNLDEQPATILDAEHLGIETKEPITIIERLRTANHKPVVYCLDKIAKTYLTCTDYQQSSGSMLEAIKASTNHQIMHAEMDLEAISYEPHISEVLNASPHEGLMLLKVVHYDEKHQPILYSLNYIKSSLVKFTITKSE | not failed |
| MLTNGMKYHEKLVDESSRNILFIGQDRISGLYDTIGILSIDRKNKKLKIIMIPRDLYIDYSSRVKHYLEENGRLNDPDFYKINAAHLIGPYMKYEGKFGAYSMNFLAELIKEIFDIEVHDYVRVNTEGFVQIVDLFGGVDINVPYDMHYDDIYQDLHIHINKGWNHLDGKKAEGFVRYRQSNDEMGNITHSIGDYERKKNQINFIKAFIEQHGTMSNIDKLPSLISTLNKYMKHSIGVGDVLTTYIGYAKDVVLYKYPIETYTVTGKDKYMNQRYYIVIENDNKTSKVVDLEHHHHHH | failed |
| MRSGRPLYWIFLLLAFSLLAVLVYVCVAVIPDLRNHPNARRSLKRVRSTLDPQREQRDASRRLDVADTPENRRQLAETLLARGDYAQAAEHYQGALRGLYRDDPHLMLGLAKAQFGLGQPQQTRQTLDALIAANPSFRSHDGHLLYARAVEGSGDTDAALHEYDTLAQGYPGEEARVRYAQLLQRIARNDQARAVYEQVLRHAAASPKHYQREQRAWVDLARKGLRELDTGA | failed |
| MNNAMQLLQPYPFKKLRALLGSVTPNPEKRPVALSIGEPKHRSPDFVAKALADNLDQMAVYPTTLGIPALREAIAGWCNRRFGVPQGWIDPARNVLPVNGTREALFAFTQTVVNRSDDGLVVSPNPFYQIYEGAAFLAGAQPHYLPCLSDNGFNPDFDAVDADIWKRCQILFLCSPGNPTGALIPVETLKKLIALADEHDFVIAADECYSELYFDEQTPPPGLLSACVELGRQDFKRCVVFHSLSKRSNLPGLRSGFVAGDAEILKAFLLYRTYHGCAMPVQTQLASIAAWNDEEHVRANRDLYREKFDAVLDILAPVLDVQRPDGGFYLWPNVGTDDAAFCRDLFVDQHVTAVPGSYLSREVDGVNPGAGRVRLALVAPLAECIEAAERIRAFVLK | not failed |
| MSLKIIAPTDKTITPSGTWSIGARAGDFVFIGGMHGTDRVTGKMVDGDEARIRRMFDNMLAAAEAAGATKADAVRLTVFVTDVAKYRPVVNKVQKDIWGDGPYPPRTVLQVPALDQGDIAEIDGTFYAPAEGHHHHHH | not failed |
| MYNRPNWQRRRRSLLVLVLGLLFLGFLIQPSYQWTKTNVAAMAGRHDSQMSPIIMIPGSSATQNRFDTLVKQLNKADHRRHSLIKLTVMTDDTIKMTGSLRARDNEPIIVVGFQNNRDGYDNIKHQARWFSLAFKKLAAKYQFNNFKAIGHSNGGLIYTYYFEHYFNRDDIKVKRIMTIGSPYNFSEANLNHKTQMLADFIKYRDRLPKSATMYSVAGTENYDSDGLVPARSVEAGKYIYQGQVKHFTEITVTGTNAQHSDLPQNAQIVTLIRTYMLDKPKQTRKGLVSTGTVE | failed |
| GSGATSAAGKPQETFLDFNESPYGPSAKARAAMQRAAALCGRYDYDAQDALVGLFAKQNGIPAECVHAYCGSRQPLQYAVAAFTGKERGLVIADPSYDSVVGAAQAQGAKVAAVPLDAEAAHDIERMLAAAQRDAGLIYICNPNNPTGTLTPHERIVRAIERKPERSVVLVDEAYIHFSDAPSVVGLAVQRQDVLVLRTFSKLYGMAGARLGLAIGHPQLLARLERFGGHNVVPSPTAHAGLESLRDDDLVPRRKQQNAEVRERTIAWLRQQGFRCTASQSNCFMVDMRRPAELVIAELEKQRVHVGRPWASWPNWVRVTVGSEEEMQAFR | failed |
| NFTLAITEAVSEKEIYNKLAENLPKILQADRGSVTLITENKDEFEVFSLQGPEGMLSIGKYFSVDNSLAGLAVQQEKTIISKLNADRIEIDAQQLYQQDLLSIMNSPLQFSDRIIGTVNIGSYKENAYDSTSLELLTLVSTLVSNYLERQHLLEQAQIGVKQYKTYSKQLESLNHVAEELCAATNE | failed |
| MSQILIGVGWVLFTVLLYQLSKKIYKLFPTPFTIPMLVATGLMAFLFIVLDIPYQHYMESGGGWIAKLLGPGVVAFAIPLYKQRHVLQKYVVPIAGGVLVGTTVAIASDFAIASLMGTDKSLILSSLPKSVTMPVAMSVSEQVGGVPSLTAAFVVIAGITGTITGPLLLKWSRVTNSVGKGIGFGCASHIMGVMRAMKNNEHEGVIGSVTMTLTAILTCLLGPLFAMMFM | failed |
